From article PMC12796476 (Nature Communications, 2025) come the findings set out here.

Assay [1] concerns the target full-length NEDD4-2-Venus (Homo sapiens, NEDD4L, UniProt Q96PU5, strain). Kind of assay: FRET or BRET. In general terms: Bioluminescence resonance energy transfer reports proximity on the nanometre scale.
Assay [2] addresses Venus-tagged NEDD4-1 HECT domain (HECT4-1-Ven) (Homo sapiens, NEDD4, UniProt P46934). Kind of assay: FRET or BRET.
The target of assay [3] is WW4-HECT4-2 domain of NEDD4-2, purified (Homo sapiens, NEDD4L (Q96PU5-1), UniProt Q96PU5-1). As to the kind of experiment: BLI. On the technique in general: In BLI a coated tip is dipped into the sample, and binding shifts an interference pattern.
WW4-HECT4-2 domain of NEDD4-2, purified, sequence (Q96PU5 541-975, one chain of several): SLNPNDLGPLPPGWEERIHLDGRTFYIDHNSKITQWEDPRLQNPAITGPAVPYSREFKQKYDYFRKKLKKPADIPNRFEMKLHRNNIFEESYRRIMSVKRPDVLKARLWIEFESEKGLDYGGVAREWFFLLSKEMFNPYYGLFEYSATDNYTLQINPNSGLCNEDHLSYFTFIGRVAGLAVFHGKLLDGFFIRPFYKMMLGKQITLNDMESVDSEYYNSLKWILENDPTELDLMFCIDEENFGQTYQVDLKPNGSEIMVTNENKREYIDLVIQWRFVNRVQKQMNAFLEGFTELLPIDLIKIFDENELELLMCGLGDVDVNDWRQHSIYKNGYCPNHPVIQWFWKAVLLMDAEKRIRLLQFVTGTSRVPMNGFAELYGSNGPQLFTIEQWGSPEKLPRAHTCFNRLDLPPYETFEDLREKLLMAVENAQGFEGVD

full-length NEDD4-2-Venus, sequence (Q96PU5 whole entry, looked up, change not shown, the tested form may be a part): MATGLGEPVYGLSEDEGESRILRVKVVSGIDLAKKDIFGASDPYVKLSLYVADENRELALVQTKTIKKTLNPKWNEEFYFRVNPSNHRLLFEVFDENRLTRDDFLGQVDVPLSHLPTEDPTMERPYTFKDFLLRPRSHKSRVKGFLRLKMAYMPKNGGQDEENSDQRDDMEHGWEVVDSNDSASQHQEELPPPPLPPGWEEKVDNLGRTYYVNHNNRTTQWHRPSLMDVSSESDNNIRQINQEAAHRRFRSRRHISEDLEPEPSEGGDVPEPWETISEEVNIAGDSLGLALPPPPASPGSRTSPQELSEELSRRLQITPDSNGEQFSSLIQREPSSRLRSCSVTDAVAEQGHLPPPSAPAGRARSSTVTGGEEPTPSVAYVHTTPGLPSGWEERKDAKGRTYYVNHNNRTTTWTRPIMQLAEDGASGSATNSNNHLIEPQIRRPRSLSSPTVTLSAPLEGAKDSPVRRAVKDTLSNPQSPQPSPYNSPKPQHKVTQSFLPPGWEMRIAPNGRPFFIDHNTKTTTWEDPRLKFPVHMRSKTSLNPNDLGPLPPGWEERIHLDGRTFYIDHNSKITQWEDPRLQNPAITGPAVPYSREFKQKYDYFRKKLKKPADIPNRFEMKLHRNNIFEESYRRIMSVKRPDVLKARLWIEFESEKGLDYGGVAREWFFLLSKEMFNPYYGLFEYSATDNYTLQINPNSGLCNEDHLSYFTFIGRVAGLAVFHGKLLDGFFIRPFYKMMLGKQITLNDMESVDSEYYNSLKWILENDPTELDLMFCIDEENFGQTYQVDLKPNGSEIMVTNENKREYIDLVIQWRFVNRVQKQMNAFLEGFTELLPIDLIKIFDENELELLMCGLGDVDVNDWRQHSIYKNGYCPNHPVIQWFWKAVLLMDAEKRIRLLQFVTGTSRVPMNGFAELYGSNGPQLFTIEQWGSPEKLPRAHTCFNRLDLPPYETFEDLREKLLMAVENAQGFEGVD
Venus-tagged NEDD4-1 HECT domain (HECT4-1-Ven), sequence (P46934 984-1318): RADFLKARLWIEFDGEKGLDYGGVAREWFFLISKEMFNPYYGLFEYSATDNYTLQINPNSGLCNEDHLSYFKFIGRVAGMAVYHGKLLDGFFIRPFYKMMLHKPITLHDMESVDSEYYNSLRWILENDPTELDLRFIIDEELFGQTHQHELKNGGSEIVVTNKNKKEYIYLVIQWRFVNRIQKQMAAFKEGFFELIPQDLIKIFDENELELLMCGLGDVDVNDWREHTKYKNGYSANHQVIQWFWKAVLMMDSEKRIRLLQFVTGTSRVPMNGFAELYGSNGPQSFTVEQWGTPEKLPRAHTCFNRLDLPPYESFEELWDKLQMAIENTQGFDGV

B1: Cer-nb.C11 (VHH)
VHH: QVQLQESGGGLVQAGGSLRLSCAASGNISDVWYMGWYRQAPGKEREFVAGIAYGTSTYYADSVKGRFTISRDNAKNTVYLQMNSLKPEDTAVYYCAVIITRFVSYPRQHTYWGQGTQVTVSS
Regarding B1, the values for the binding result in assay [1] and in assay [2] were “binds” and “no binding”, respectively.

B2: nb.C11 (HIS-tagged, purified) (VHH)
VHH: QVQLQESGGGLVQAGGSLRLSCAASGNISDVWYMGWYRQAPGKEREFVAGIAYGTSTYYADSVKGRFTISRDNAKNTVYLQMNSLKPEDTAVYYCAVIITRFVSYPRQHTYWGQGTQVTVSS
Broadly, the Kd is the free concentration of one partner at which half of the binding sites on the other are occupied at equilibrium, for simple one-to-one binding. Read a low Kd as a tighter complex. Turning to B2, the equilibrium dissociation constant (Kd) in assay [3] is 2 nM.
